Test results from article PMC4773759 (Scientific Reports, 2016).
“Also recorded” adds a separate entry of the source.

Key:
trypsin = trypsin mediated cleavage of K49-P1-20
rhECE-1 [1] = target: T1, rhECE-1 (Homo sapiens, UniProt P42892); assay: Cleavage of endogenous Aβ42 in cerebrospinal fluid by activated ECE-1 (ELISA); assay type: biochemical; conditions: CGS35066 500 nM, rhECE-1 0.04 ng/μL, K49-P1-20 300 ng/μL, 4 h
T1 construct: purchased R & D systems
T1 sequence (P42892 1-770): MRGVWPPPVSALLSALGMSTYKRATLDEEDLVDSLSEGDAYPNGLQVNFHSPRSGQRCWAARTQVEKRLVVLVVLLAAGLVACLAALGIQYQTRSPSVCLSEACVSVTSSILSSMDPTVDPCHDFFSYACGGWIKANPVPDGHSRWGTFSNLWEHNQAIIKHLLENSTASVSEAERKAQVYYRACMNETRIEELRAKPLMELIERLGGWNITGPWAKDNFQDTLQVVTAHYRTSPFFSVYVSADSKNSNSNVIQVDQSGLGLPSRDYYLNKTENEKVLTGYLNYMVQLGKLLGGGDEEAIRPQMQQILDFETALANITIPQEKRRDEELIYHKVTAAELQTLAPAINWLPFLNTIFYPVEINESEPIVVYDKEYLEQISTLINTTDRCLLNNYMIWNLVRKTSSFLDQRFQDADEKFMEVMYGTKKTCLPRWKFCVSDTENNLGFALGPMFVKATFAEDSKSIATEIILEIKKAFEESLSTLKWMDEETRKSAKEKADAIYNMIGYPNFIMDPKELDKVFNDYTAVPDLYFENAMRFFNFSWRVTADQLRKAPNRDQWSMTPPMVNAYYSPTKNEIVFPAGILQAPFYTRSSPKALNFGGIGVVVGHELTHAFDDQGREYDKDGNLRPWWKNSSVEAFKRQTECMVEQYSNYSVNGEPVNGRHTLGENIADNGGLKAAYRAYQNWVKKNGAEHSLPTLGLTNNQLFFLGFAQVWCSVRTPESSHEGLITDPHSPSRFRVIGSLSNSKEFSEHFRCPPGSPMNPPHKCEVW
Experimental: Aβ42 levels were measured using a commercially available Human Aβ42 ELISA kit (Life technologies), according to the manufacturer’s instructions. rhECE-1 (0.04 ng/μL) alone, rhECE + K49-P1-20 (300 ng/μL) or rhECE + K49-P1-20 + CGS35066 (500 nM) was incubated at 37 °C for 1 hr. Cerebrospinal fluid (diluted 1:10 in assay buffer) from patients with Alzheimer’s disease was added to each reaction mixture. The final volume of cerebrospinal fluid added was kept to 1/10th the final volume of reaction mixture, which was adjusted using ECE-1 buffer. Aliquots of equal volume were taken at 0 and 4 h, snap frozen in dry ice and stored at −80 °C until analysed by ELISA. The amount of Aβ42 remaining after 4 h was expressed as a % of initial.

rhECE-1 [2] = target: T1, rhECE-1; assay: ECE-1 activity, bradykinin-based QFS assay; assay type: biochemical; conditions: 10 ng/μL, rhECE-1 0.05 ng/μL, 1 h pre-incubation 37 °C, QFS 40 μM; comparisons with K49-P1-20 or enzyme alone
Experimental: Enzyme activities were measured using a previously described bradykinin-based quenched fluorescent substrate (QFS) assay. Briefly, rhECE-1 or NEP (0.05 ng/μL) was incubated with ECE-1 buffer for 1 h at 37 °C. Where indicated, venom, B. asper myotoxin II or relevant synthetic peptide (10 ng/μL) was added to the reaction mixture and pre-incubated (1 h at 37 °C) with rhECE-1 or rhNEP prior to the addition of substrate ((7-methoxycoumarin-4-yl)acetyl-Arg-Pro-Pro-Gly-Phe-Ser-Ala-Phe-Lys(2, 4-dinitrophenyl); 40 μM final). The specificity of ECE-1 and NEP mediated cleavage was confirmed using the inhibitors CGS35066 (500 nM) and thiorphan (10 µM).
Increase in fluorescence over time (excitation and emission wavelengths of 320 and 405 nm respectively) was taken as evidence of enzyme activity. The specific activity for each enzyme was calculated using a standard curve of known 7-methoxycoumarin concentrations. Enzyme alone (rhECE-1, rhNEP, rhACE-2 and rhIDE) was used as a control in all studies examining the effect of K49-P1-20 on enzyme activity.
Non-linear regression analysis in GraphPad Prism software (version 6.04; Michaelis Menton equation) was used to calculate the enzyme kinetic parameters (Vmax and Km). In all enzyme assays the amount of substrate cleaved over 80 min was determined. Where indicated, enzyme activity in the presence of K49-P1-20 was expressed as a % of the respective control. The enzyme kinetic parameters were determined based on the rate of substrate cleavage.

SLFELGKMILQETGKNPAKS
cleaved bond (trypsin): K7-M8

O=C(O)C(Cc1ccc2c(c1)oc1ccccc12)NCP(=O)(O)O (centres unmarked) [CGS35066]
Effect on the Aβ42 decrease by ECE-1 + K49-P1-20 in cerebrospinal fluid (rhECE-1 [1]): blocked

B. asper myotoxin II
Stimulation of ECE-1 activity (in words) (rhECE-1 [2]): ECE-1 stimulation

K49-P1-34: synthetic peptide corresponding to the N-terminal region of B. asper myotoxin II
Stimulation of ECE-1 activity (in words) (rhECE-1 [2]): mimicked the stimulator effects; also recorded: No significant difference

K49-P9-34: synthetic peptide from the N-terminal region of B. asper myotoxin II
Stimulation of ECE-1 activity (in words) (rhECE-1 [2]): significantly less
